We go through four compounds from patent US12097241B2, “Methods of treating kidney failure, and/or improving or stablizing renal function using modified relaxin polypeptides” (BRISTOL-MYERS SQUIBB COMPANY, priority 2017, dated 2024).

Data set [1] concerns the target T1, human RXFP1 receptor (Homo sapiens, UniProt Q9HBX9).
T1 construct: expressed in transfected cells
T1 sequence (Q9HBX9 1-757): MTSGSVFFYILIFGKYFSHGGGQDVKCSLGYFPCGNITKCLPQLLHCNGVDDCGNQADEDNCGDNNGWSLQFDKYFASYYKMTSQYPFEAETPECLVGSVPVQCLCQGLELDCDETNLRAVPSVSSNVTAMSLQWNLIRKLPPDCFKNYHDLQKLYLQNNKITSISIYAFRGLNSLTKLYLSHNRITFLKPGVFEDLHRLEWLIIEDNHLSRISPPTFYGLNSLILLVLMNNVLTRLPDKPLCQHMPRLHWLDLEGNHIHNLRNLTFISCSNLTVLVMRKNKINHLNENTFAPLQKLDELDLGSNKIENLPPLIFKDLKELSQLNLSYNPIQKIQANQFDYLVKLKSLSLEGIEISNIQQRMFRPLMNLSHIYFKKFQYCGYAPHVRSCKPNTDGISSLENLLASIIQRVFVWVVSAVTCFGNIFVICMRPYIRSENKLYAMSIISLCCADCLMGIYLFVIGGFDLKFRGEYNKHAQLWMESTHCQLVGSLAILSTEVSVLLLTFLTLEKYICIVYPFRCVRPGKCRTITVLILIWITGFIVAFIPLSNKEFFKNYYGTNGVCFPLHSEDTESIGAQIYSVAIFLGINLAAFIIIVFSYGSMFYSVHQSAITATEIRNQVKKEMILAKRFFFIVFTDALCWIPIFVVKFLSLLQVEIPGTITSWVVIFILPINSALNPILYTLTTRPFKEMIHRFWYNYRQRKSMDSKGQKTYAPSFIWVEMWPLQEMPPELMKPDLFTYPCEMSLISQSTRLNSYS
In words: Intracellular cAMP accumulation assay. Format: cell-based. As to conditions: for EC50: CHO-K1 cells stably expressing human RXFP1, 10 min at 37° C., HTRF cAMP, average, read-out: hRXFP1/CHO-K1 cAMP EC50 (nM, avg).

Data set [2] is described as follows: In vivo pharmacokinetic (PK) studies in rats. Set-up: species or system Sprague-Dawley rats. As to conditions: rat, male Sprague-Dawley rats, single SC dose 1.0 mg/kg, serum ELISA; for AUC(0-inf): read-out: Rat PK AUC Total; for level at time molar at 24 h: read-out: Rat PK C24. The essentials:
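Male Sprague-Dawley rats (n=3) given a single 1 mg/kg IV or SC dose of relaxin constructs in 20 mM histidine, 750 mM NaCl, pH 6.0; jugular serum sampled to 72 h. Serum relaxin by ELISA; Cmax, AUCinf, C24 and half-life from non-compartmental analysis of individual profiles.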

pEC50: −log10 of the molar value. Where two headings read alike, the source gives them in different places.

Take `CC[C@H](C)[C@@H]1NC(=O)[C@H](C)NC(=O)[C@H]([C@@H](C)CC)NC(=O)[C@H](CCC(N)=O)NC(=O)[C@H](C)NC(=O)[C@H](CCCNC(=N)N)NC(=O)[C@H](C(C)C)NC(=O)[C@H](CC(C)C)NC(=O)[C@H](CCC(=O)O)NC(=O)[C@H](CCCNC(=N)N)NC(=O)CNC(=O)[C@@H](NC(=O)[C@H](CC(C)C)NC(=O)[C@H](CCCCN)NC(=O)[C@@H](NC(=O)[C@@H](NC(=O)[C@H](CCC(=O)O)NC(=O)[C@H](CCC(=O)O)NC(=O)[C@H](CCSC)NC(=O)[C@H](Cc2c[nH]c3ccccc23)NC(=O)[C@H](CO)NC(=O)[C@H](C)N)C(C)C)[C@@H](C)CC)CSSC[C@@H]2NC(=O)[C@@H](NC(=O)[C@H](CCCCN)NC(=O)[C@H](CC(N)=O)NC(=O)[C@H](C)NC(=O)[C@H](CC(C)C)NC(=O)[C@H](C)NC(=O)[C@H](CO)NC(=O)[C@H](Cc3ccc(O)cc3)NC(=O)[C@H](CC(C)C)NC(=O)[C@@H](N)Cc3ccc(C(C)=NOCCNC(=O)[C@H](CCCCN)NC(=O)[C@H](CCCCN)NC(=O)[C@H](CCCCN)NC(=O)CNC(=O)CNC(=O)CNC(=O)CC[C@H](NC(=O)CCCCCCCCCCCCC(=O)O)C(=O)O)cc3)CSSC[C@H](NC(=O)CNC(=O)[C@H](C(C)C)NC(=O)[C@H](Cc3c[nH]cn3)NC2=O)C(=O)N[C@@H]([C@@H](C)O)C(=O)N[C@@H](CCCCN)C(=O)N[C@@H](CCCNC(=N)N)C(=O)N[C@@H](CO)C(=O)N[C@@H](CC(C)C)C(=O)N[C@@H](C)C(=O)N[C@@H](CCCNC(=N)N)C(=O)N[C@@H](Cc2ccccc2)C(=O)N[C@H](C(=O)O)CSSC[C@@H](C(=O)NCC(=O)N[C@@H](CCSC)C(=O)N[C@@H](CO)C(=O)N[C@H](C(=O)N[C@@H](Cc2c[nH]c3ccccc23)C(=O)N[C@@H](CO)C(=O)O)[C@@H](C)O)NC1=O` [AQ1-KKKGGG-Glu^γ-C13-COOH]: the EC50 in data set [1] turned out to be 0.09 nM. Also, in data set [2], the AUC(0-inf) turned out to be 0.258 µM·h and the level at time molar at 24 h stood at 0.24 nM.
As for `CC[C@H](C)[C@@H]1NC(=O)[C@H](C)NC(=O)[C@H]([C@@H](C)CC)NC(=O)[C@H](CCC(N)=O)NC(=O)[C@H](C)NC(=O)[C@H](CCCNC(=N)N)NC(=O)[C@H](C(C)C)NC(=O)[C@H](CC(C)C)NC(=O)[C@H](CCC(=O)O)NC(=O)[C@H](CCCNC(=N)N)NC(=O)CNC(=O)[C@@H](NC(=O)[C@H](CC(C)C)NC(=O)[C@H](CCCCN)NC(=O)[C@@H](NC(=O)[C@@H](NC(=O)[C@H](CCC(=O)O)NC(=O)[C@H](CCC(=O)O)NC(=O)[C@H](CCSC)NC(=O)[C@H](Cc2c[nH]c3ccccc23)NC(=O)[C@H](CO)NC(=O)[C@H](C)N)C(C)C)[C@@H](C)CC)CSSC[C@@H]2NC(=O)[C@@H](NC(=O)[C@H](CCCCN)NC(=O)[C@H](CC(N)=O)NC(=O)[C@H](C)NC(=O)[C@H](CC(C)C)NC(=O)[C@H](C)NC(=O)[C@H](CO)NC(=O)[C@H](Cc3ccc(O)cc3)NC(=O)[C@H](CC(C)C)NC(=O)[C@@H](N)Cc3ccc(C(C)=NOCCNC(=O)[C@H](CCC(=O)O)NC(=O)[C@H](CCC(=O)O)NC(=O)[C@H](CCC(=O)O)NC(=O)CNC(=O)CNC(=O)CNC(=O)CC[C@H](NC(=O)CCCCCCCCCCCCC(=O)O)C(=O)O)cc3)CSSC[C@H](NC(=O)CNC(=O)[C@H](C(C)C)NC(=O)[C@H](Cc3c[nH]cn3)NC2=O)C(=O)N[C@@H]([C@@H](C)O)C(=O)N[C@@H](CCCCN)C(=O)N[C@@H](CCCNC(=N)N)C(=O)N[C@@H](CO)C(=O)N[C@@H](CC(C)C)C(=O)N[C@@H](C)C(=O)N[C@@H](CCCNC(=N)N)C(=O)N[C@@H](Cc2ccccc2)C(=O)N[C@H](C(=O)O)CSSC[C@@H](C(=O)NCC(=O)N[C@@H](CCSC)C(=O)N[C@@H](CO)C(=O)N[C@H](C(=O)N[C@@H](Cc2c[nH]c3ccccc23)C(=O)N[C@@H](CO)C(=O)O)[C@@H](C)O)NC1=O` [AQ1-EEEGGG-Glu^γ-C13-COOH], the EC50 in data set [1] stood at 0.31 nM. Moreover, in data set [2], the AUC(0-inf) came out at 1.38 µM·h and the level at time molar at 24 h is 0.29 nM.
On to `CC[C@H](C)[C@@H]1NC(=O)[C@H](C)NC(=O)[C@H]([C@@H](C)CC)NC(=O)[C@H](CCC(N)=O)NC(=O)[C@H](C)NC(=O)[C@H](CCCNC(=N)N)NC(=O)[C@H](C(C)C)NC(=O)[C@H](CC(C)C)NC(=O)[C@H](CCC(=O)O)NC(=O)[C@H](CCCNC(=N)N)NC(=O)CNC(=O)[C@@H](NC(=O)[C@H](CC(C)C)NC(=O)[C@H](CCCCN)NC(=O)[C@@H](NC(=O)[C@@H](NC(=O)[C@H](CCC(=O)O)NC(=O)[C@H](CCC(=O)O)NC(=O)[C@H](CCSC)NC(=O)[C@H](Cc2c[nH]c3ccccc23)NC(=O)[C@H](CO)NC(=O)[C@H](C)N)C(C)C)[C@@H](C)CC)CSSC[C@@H]2NC(=O)[C@@H](NC(=O)[C@H](CCCCN)NC(=O)[C@H](CC(N)=O)NC(=O)[C@H](C)NC(=O)[C@H](CC(C)C)NC(=O)[C@H](C)NC(=O)[C@H](CO)NC(=O)[C@H](Cc3ccc(O)cc3)NC(=O)[C@H](CC(C)C)NC(=O)[C@@H](N)Cc3ccc(/C(C)=N/OCCNC(=O)CNC(=O)[C@H](CO)NC(=O)[C@H](Cc4c[nH]cn4)NC(=O)[C@H](Cc4c[nH]cn4)NC(=O)[C@H](Cc4c[nH]cn4)NC(=O)[C@H](Cc4c[nH]cn4)NC(=O)[C@H](Cc4c[nH]cn4)NC(=O)CNC(=O)[C@H](CO)NC(=O)CC[C@H](NC(=O)CCCCCCCCCCCCC(=O)O)C(=O)O)cc3)CSSC[C@H](NC(=O)CNC(=O)[C@H](C(C)C)NC(=O)[C@H](Cc3c[nH]cn3)NC2=O)C(=O)N[C@@H]([C@@H](C)O)C(=O)N[C@@H](CCCCN)C(=O)N[C@@H](CCCNC(=N)N)C(=O)N[C@@H](CO)C(=O)N[C@@H](CC(C)C)C(=O)N[C@@H](C)C(=O)N[C@@H](CCCNC(=N)N)C(=O)N[C@@H](Cc2ccccc2)C(=O)N[C@H](C(=O)O)CSSC[C@@H](C(=O)NCC(=O)N[C@@H](CCSC)C(=O)N[C@@H](CO)C(=O)N[C@H](C(=O)N[C@@H](Cc2c[nH]c3ccccc23)C(=O)N[C@@H](CO)C(=O)O)[C@@H](C)O)NC1=O` [AQ1-GSHHHHHGS-Glu^γ-C13-COOH], for which the EC50 in data set [1] was found to be 0.28 nM. Besides, in data set [2], the AUC(0-inf) turned out to be 0.582 µM·h and the level at time molar at 24 h was 0.46 nM.
With `CC[C@H](C)[C@@H]1NC(=O)[C@H](C)NC(=O)[C@H]([C@@H](C)CC)NC(=O)[C@H](CCC(N)=O)NC(=O)[C@H](C)NC(=O)[C@H](CCCNC(=N)N)NC(=O)[C@H](C(C)C)NC(=O)[C@H](CC(C)C)NC(=O)[C@H](CCC(=O)O)NC(=O)[C@H](CCCNC(=N)N)NC(=O)CNC(=O)[C@@H](NC(=O)[C@H](CC(C)C)NC(=O)[C@H](CCCCN)NC(=O)[C@@H](NC(=O)[C@@H](NC(=O)[C@H](CCC(=O)O)NC(=O)[C@H](CCC(=O)O)NC(=O)[C@H](CCSC)NC(=O)[C@H](Cc2c[nH]c3ccccc23)NC(=O)[C@H](CO)NC(=O)[C@H](C)N)C(C)C)[C@@H](C)CC)CSSC[C@@H]2NC(=O)[C@@H](NC(=O)[C@H](CCCCN)NC(=O)[C@H](CC(N)=O)NC(=O)[C@H](C)NC(=O)[C@H](CC(C)C)NC(=O)[C@H](C)NC(=O)[C@H](CO)NC(=O)[C@H](Cc3ccc(O)cc3)NC(=O)[C@H](CC(C)C)NC(=O)[C@@H](N)Cc3ccc(C(C)=NOCCNC(=O)[C@H](CCCCN)NC(=O)[C@H](CCCCN)NC(=O)CC[C@H](NC(=O)CCCCCCCCCCCCC(=O)O)C(=O)O)cc3)CSSC[C@H](NC(=O)CNC(=O)[C@H](C(C)C)NC(=O)[C@H](Cc3c[nH]cn3)NC2=O)C(=O)N[C@@H]([C@@H](C)O)C(=O)N[C@@H](CCCCN)C(=O)N[C@@H](CCCNC(=N)N)C(=O)N[C@@H](CO)C(=O)N[C@@H](CC(C)C)C(=O)N[C@@H](C)C(=O)N[C@@H](CCCNC(=N)N)C(=O)N[C@@H](Cc2ccccc2)C(=O)N[C@H](C(=O)O)CSSC[C@@H](C(=O)NCC(=O)N[C@@H](CCSC)C(=O)N[C@@H](CO)C(=O)N[C@H](C(=O)N[C@@H](Cc2c[nH]c3ccccc23)C(=O)N[C@@H](CO)C(=O)O)[C@@H](C)O)NC1=O` [AQ1-KK-Glu^γ-C13-COOH], the pEC50 in data set [1] is 10.00.
